Article PMC2132940

What was measured:
Experiment in all cases: co-IP
CD7BB1 (human | canine) [1] = molecular target: CD7BB1 (human | canine) (UniProt P09564)
GP2CAD1 (rat | canine) = molecular target: GP2CAD1 (rat | canine)
CD7BB1 (human | canine) [2] = molecular target: CD7BB1 (human | canine) (UniProt P09564); remark: listed apart in the source

UniProt P09564, sequence (P09564 whole entry): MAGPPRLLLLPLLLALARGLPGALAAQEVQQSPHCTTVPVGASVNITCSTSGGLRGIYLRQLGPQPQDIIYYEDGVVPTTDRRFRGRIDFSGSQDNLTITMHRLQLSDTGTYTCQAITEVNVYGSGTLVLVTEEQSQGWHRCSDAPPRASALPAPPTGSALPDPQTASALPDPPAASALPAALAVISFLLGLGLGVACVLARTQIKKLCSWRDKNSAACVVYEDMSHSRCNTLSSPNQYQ

Molecule: α-catenin (natural protein)
- stoichiometry N (α-catenin per 5 CD7BB1) (CD7BB1 (human | canine) [1]): 0.8

B1: β-catenin (natural protein)
chain: MATQADLMELDMAMEPDRKAAVSHWQQQSYLDSGIHSGATTTAPSLSGKGNPEEEDVDTTQVLYEWEQGFSQSFTQEQVADIDGQYAMTRAQRVRAAMFPETLDEGMQIPSTQFDAAHPTNVQRLAEPSQMLKHAVVNLINYQDDAELATRAIPELTKLLNDEDQVVVNKAAVMVHQLSKKEASRHAIMRSPQMVSAIVRTMQNTNDVETARCTAGTLHNLSHHREGLLAIFKSGGIPALVKMLGSPVDSVLFYAITTLHNLLLHQEGAKMAVRLAGGLQKMVALLNKTNVKFLAITTDCLQILAYGNQESKLIILASGGPQALVNIMRTYTYEKLLWTTSRVLKVLSVCSSNKPAIVEAGGMQALGLHLTDPSQRLVQNCLWTLRNLSDAATKQEGMEGLLGTLVQLLGSDDINVVTCAAGILSNLTCNNYKNKMMVCQVGGIEALVRTVLRAGDREDITEPAICALRHLTSRHQEAEMAQNAVRLHYGLPVVVKLLHPPSHWPLIKATVGLIRNLALCPANHAPLREQGAIPRLVQLLVRAHQDTQRRTSMGGTQQQFVEGVRMEEIVEGCTGALHILARDVHNRIVIRGLNTIPLFVQLLYSPIENIQRVAAGVLCELAQDKEAAEAIEAEGATAPLTELLHSRNEGVATYAAAVLFRMSEDKPQDYKKRLSVELTSSLFRTEPMAWNETADLGLDIGAQGEPLGYRQDDPSYRSFHSGGYGQDALGMDPMMEHEMGGHHPGADYPVDGLPDLGHAQDLMDGLPPGDSNQLAWFDTDL
- stoichiometry N (β-catenin per GP2CAD1) (GP2CAD1 (rat | canine)): 1
- stoichiometry N (β-catenin per 5 CD7BB1) (CD7BB1 (human | canine) [2]): 1
